The labels stand for the following.
B1: HDV Ribozyme (parent)
chain: GGCCGGCAUGGUCCCAGCCUCCUCGCUGGCGCCGGCUGGGCAACAUUCCGAGGGGACCGUCCCCUCGGUAAUGGCGAAUGGGACCCA

The variants in the series derive from B1. Put plainly: self-cleavage, relative activity (ratio to wild type); higher = more cleavage; co-transcriptional.
Regarding GGGCGGCAUGGUCCCAGCCUCCUCGCUGGCGCCGGCUGGGCAACAUUCCGAGGGGACCGUACCCUCGGUAAUGGCGAAUGGGACCCA, the self-cleavage was found to be 0.87.
For GGGCGGCAUGGUCCCAGCCUCCUCGCUGGCGCCGGCUGGGCAACAUUCCGAGGGGACCGUUCCCUCGGUAAUGGCGAAUGGGACCCA, the self-cleavage worked out at 0.729.
To GGGCGGCAUGGUCCCAGCCUCCUCGCUGGCGCCGGCUGGGCAACAUUCCGAGGGGACCGUCCCCUCGGUAAUGGCGAAUGGAACCCA belongs 0.19.
As to GGGCGGCAUGGUCCCAGCCUCCUCGCUGGCGCCGGCUGGGCAACAUUCCGAGGGGACCGUCCCCUCGGUAAUGGCGAAUGGUACCCA, the self-cleavage came to 0.166.
For the variant GGGCGGCAUGGUCCCAGCCUCCUCGCUGGCGCCGGCUGGGCAAAAUUCCGAGGGGACCGUCCCCUCGGUAAUGGCGAAUGGGACCCA, the self-cleavage is 0.312.
For GGGCUGCAUGGUCCCAGCCUCCUCGCUGGCGCCGGCUGGGCAACAUUCCGAGGGGACCGUCCCCUCGGUAAUGGCGAAUGGGACCCA, the self-cleavage was determined as 0.119.
For the variant GGGCGGCAUCGUCCCAGCCUCCUCGCUGGCGCCGGCUGGGCAACAUUCCGAGGGGACCGUCCCCUCGGUAAUGGCGAAUGGGACCCA, the self-cleavage amounted to 0.151.
Regarding GGGCGGCAUGGUCCCAGCCUCCUCGCUGGCGCCGGCUGGGCAACAUUCCGAGGGGACCGGCCCCUCGGUAAUGGCGAAUGGGACCCA, the self-cleavage was found to be 0.773.
For GGGCGGCAUGGUCCCAGCCUCCUCGCUGGCGCCGGCUGGGCAACAUUCCGAGGGGACCGCCCCCUCGGUAAUGGCGAAUGGGACCCA the value was 0.748.
For the variant GGGCGGCAUGGUCCCAGCCUCCUCGCUGGCGCCGGCUGGGCAACAUUCCGAGGGGACCGACCCCUCGGUAAUGGCGAAUGGGACCCA, the self-cleavage is 0.772.
For GGGCGGCAUGGUCCCAGCCUCCUCGCUGGCGCCGGCUGGGCAACAUUCCGAGGGGACAGUCCCCUCGGUAAUGGCGAAUGGGACCCA the value was 0.842; for GGGCGGCAUGGUCCCAGCCUCCUCGCUGGCGCCGGCUGGGCAACAUUCCGAGGGGACUGUCCCCUCGGUAAUGGCGAAUGGGACCCA, 0.709.
To GGGCGGCAUGGUCCCAGCCUCCUCGCUGGCGCCGGCUGGGCAACAUUCCGAGGGGACCGUCCCCUCGGUAAUGGCGAAUGGGAACCA belongs 0.564; to GGGCGGCAUGGUCCCAGCCUCCUCGCUGGCGCCCGCUGGGCAACAUUCCGAGGGGACCGUCCCCUCGGUAAUGGCGAAUGGGACCCA, 0.192; to GGGCGGCAUGGUCCCAGCCUCCUCGCUGGCGCCAGCUGGGCAACAUUCCGAGGGGACCGUCCCCUCGGUAAUGGCGAAUGGGACCCA, 0.229.
To GGUCGGCAUGGUCCCGGCCUCCUCGCUGGCGCCGGCUGGGCAACAUUCCGAGGGGACCGUCCCCUCGGUAAUGGCGAAUGGGACCCA belongs 0.675; to GGGCGGCAUGGUCCCAGCCUCCUCGCUGGCGCCGGCUGGGCAACAUUCCGAGGGGACCGUCCCCUCGCUAAUGGCGAAUGGGACCCA, 0.531.
Consider GGGCGGCAUGGUCCCAGCCUCCUCGCUGGCGCCGGCUGGGCAACAUUCCGAGGGGACCGUCCCCUCGUUAAUGGCGAAUGGGACCCA, for which the self-cleavage amounted to 0.383.
In the case of GGGCGGCAUGGUCCCAGCCUCCUCGCUGGCGCCGGCUGGUCAACAUUCCGAGGGGACCGUCCCCUCGGUAAUGGCGAAUGGGACCCA, the self-cleavage turned out to be 0.442.
As for GGGCGGCAUGGUCCCAGCCUCCUCGCUGGCGCCGGCUGGGCAACAUUCCGAGGGGACCGUCCCCUCGGUAAUGGCGAAUGGGACGCA, the self-cleavage came to 0.774.
For GGGCGGCAUGGUCCCAGCCUCCUCGCUGGCGCCGGCUGGGCAACAGUCCGAGGGGACCGUCCCCUCGGUAAUGGCGAAUGGGACCCA, the self-cleavage was 0.248.
For the variant GGUCGGCAUGGUCCCAGCCUCCUCGCUGGCGCCGGCUGGGCAACAUUCCGAGGGGACCGUCCCCUCGGUAAUGGCGAAUGGGACCCG, the self-cleavage turned out to be 0.752.
To GGGCGGCAUGGUCCCAGCCUCCUCGCUGACGCCGGCUGGGCAACAUUCCGAGGGGACCGUCCCCUCGGUAAUGGCGAAUGGGACCCA belongs 0.106; to GGGCGGCAUGGUCCCAGCAUCCUCGCUGGCGCCGGCUGGGCAACAUUCCGAGGGGACCGUCCCCUCGGUAAUGGCGAAUGGGACCCA, 0.0594.
To GGGCGGCAUGGUCCCAGCCUCCUCGCUGGCGCCGGCUGGGCAACAUUCCUAGGGGACCGUCCCCUCGGUAAUGGCGAAUGGGACCCA belongs 0.665; to GGGCGGCAUGGUCCCAGCCUCCUCGCUGGCGCCGACUGGGCAACAUUCCGAGGGGACCGUCCCCUCGGUAAUGGCGAAUGGGACCCA, 1.08.
For GGUCGGCAUGGUCCCAGCCUCCUCGCUGGCGCCGGCUGGGCCACAUUCCGAGGGGACCGUCCCCUCGGUAAUGGCGAAUGGGACCCA the value was 0.181; for GGGCGGCAUGGUCCCAGCCUCCUCGCUGGCGCCGGCUGGGCAACAUUCCGAGGGGACCGUCCCCUCGGUAAUCGCGAAUGGGACCCA, 0.272.
In the case of GGUCGGCAUGGUCCCAGCCUCCUCGCUGGCGCCGGCUGGGCAACAUUCCGAGGGGACCGUCCCCUCGGUAAUGGCGAAUGGGUCCCA, the self-cleavage was 0.17.
To GGGCGGCAUGGUCCCAGCCUCCUCGCUGGCGCCGGCUGGGCAACAUUCCGAGGGGACCGUCCCCUCGGCAAUGGCGAAUGGGACCCA belongs 0.653; to GGGCGGCAUGUUCCCAGCCUCCUCGCUGGCGCCGGCUGGGCAACAUUCCGAGGGGACCGUCCCCUCGGUAAUGGCGAAUGGGACCCA, 0.0683; to GGGCGGCAUGGUCCCAGCCCCCUCGCUGGCGCCGGCUGGGCAACAUUCCGAGGGGACCGUCCCCUCGGUAAUGGCGAAUGGGACCCA, 0.0489.
